The results in this text go back to PMC12312913.

Common to all, as to assay: BLI; Octet R2; His6-tagged OMP-TF bound to rabbit anti-His mAb and tethered to ProA biosensors; analyte: crude cell lysate of J-Flag at different concentrations; PBS with 0.1% BSA and 0.01% Tween-20; double reference subtraction (buffer and TF sensor); 1:1 binding model
In assay [1] the target is OmpX fused to TF and His tag (S. Typhimurium).
Assay [2] concerns the target BtuB fused to TF and His tag (S. Typhimurium) (UniProt P37409).
In assay [3] the target is OmpC fused to TF and His tag (S. Typhimurium) (UniProt P0A263).
OmpC fused to TF and His tag (S. Typhimurium), sequence (P0A263 22-378): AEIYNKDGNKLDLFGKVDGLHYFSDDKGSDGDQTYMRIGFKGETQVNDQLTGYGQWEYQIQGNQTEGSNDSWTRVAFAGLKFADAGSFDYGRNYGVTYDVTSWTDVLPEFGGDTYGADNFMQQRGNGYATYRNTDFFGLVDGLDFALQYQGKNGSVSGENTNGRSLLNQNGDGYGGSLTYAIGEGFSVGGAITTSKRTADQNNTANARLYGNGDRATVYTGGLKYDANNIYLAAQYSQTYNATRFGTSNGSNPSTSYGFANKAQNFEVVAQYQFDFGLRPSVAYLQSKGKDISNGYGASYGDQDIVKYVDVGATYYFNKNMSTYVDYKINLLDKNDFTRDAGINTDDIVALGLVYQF

BtuB fused to TF and His tag (S. Typhimurium), sequence (P37409 21-614): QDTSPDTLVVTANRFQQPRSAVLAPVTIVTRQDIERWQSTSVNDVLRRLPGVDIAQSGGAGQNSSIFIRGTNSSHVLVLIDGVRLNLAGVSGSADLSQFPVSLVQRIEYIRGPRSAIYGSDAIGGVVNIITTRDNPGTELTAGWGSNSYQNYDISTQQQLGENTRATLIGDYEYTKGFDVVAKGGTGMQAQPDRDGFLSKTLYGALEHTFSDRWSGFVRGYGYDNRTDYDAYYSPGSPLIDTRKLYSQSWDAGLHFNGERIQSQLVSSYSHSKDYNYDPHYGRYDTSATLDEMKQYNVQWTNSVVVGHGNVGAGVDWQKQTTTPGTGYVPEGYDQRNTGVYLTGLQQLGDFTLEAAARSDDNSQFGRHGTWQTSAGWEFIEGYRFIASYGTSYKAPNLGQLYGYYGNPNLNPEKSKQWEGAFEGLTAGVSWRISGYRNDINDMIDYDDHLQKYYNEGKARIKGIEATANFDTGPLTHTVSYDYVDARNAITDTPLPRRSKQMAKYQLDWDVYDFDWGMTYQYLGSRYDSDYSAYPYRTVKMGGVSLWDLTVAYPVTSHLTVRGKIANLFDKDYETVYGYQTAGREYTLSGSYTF

In the case of “Gifsy-1 central tail tip J protein with Flag tag (natural protein)”, the Kd is 70000 pM in assay [1], 5.97 pM in assay [2] and 341 pM in assay [3].
